Assay results taken from paper PMC10786891, “Massively parallel profiling of RNA-targeting CRISPR-Cas13d”.
Substitutions are numbered along the chain they refer to. In names and notes the source's numbering stands.

T1: EsCas13d, nuclease-dead (Eubacterium siraeum, UniProt B0MS50, R295A;H300A;R849A;H854A)
T1 sequence: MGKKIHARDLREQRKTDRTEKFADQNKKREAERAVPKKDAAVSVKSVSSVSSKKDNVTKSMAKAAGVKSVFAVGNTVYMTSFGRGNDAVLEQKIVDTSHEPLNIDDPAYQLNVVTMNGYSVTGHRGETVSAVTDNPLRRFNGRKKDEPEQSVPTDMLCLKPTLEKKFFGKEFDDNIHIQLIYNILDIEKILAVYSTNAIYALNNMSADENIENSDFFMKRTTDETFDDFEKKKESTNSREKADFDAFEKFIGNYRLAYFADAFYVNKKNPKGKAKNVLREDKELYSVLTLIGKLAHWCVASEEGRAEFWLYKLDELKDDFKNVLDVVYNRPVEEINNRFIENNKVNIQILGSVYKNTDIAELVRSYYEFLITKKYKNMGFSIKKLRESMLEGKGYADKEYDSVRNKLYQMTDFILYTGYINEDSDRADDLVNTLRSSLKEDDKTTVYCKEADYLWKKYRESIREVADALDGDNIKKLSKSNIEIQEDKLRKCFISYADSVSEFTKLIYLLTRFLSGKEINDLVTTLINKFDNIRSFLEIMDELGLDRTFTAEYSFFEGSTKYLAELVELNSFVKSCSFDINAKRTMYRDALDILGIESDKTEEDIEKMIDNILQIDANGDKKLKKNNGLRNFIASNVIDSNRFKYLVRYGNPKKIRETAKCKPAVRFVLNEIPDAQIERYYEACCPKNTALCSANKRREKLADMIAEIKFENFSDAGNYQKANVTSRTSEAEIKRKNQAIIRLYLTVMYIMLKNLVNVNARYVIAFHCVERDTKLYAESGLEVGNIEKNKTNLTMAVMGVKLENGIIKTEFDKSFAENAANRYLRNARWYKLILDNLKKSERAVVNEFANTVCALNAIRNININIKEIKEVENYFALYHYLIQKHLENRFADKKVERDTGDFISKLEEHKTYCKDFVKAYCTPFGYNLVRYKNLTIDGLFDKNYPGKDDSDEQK

B1: target 1 insG 3' of 6,insU 3' of 5 (mixed)
RNA 1: CACCCGUGCAAAAAUGCAGGGGUCUAAAACUGAGCGGAUAACCUCUCUAUGG
RNA 2: GGGAAUGGAUCCACAUCUACGAAUUCGUACCAUAGAGAGGUUAUCCGGUCUCACCGAGAUCGGAAGAGCACACGU
B2: target 1 C2U,A18U (mixed)
RNA 1: B1 RNA 1
RNA 2: GGGAAUGGAUCCACAUCUACGAAUUCGUACCAUUGAGAGGUUAUCCGCUUACCGAGAUCGGAAGAGCACACGU
B3: target 1 insG 3' of 20,insU 3' of 20 (mixed)
RNA 1: B1 RNA 1
RNA 2: GGGAAUGGAUCCACAUCUACGAAUUCGUACCAGUUAGAGAGGUUAUCCGCUCACCGAGAUCGGAAGAGCACACGU
B4: target 1 G5C,A9C (mixed)
RNA 1: B1 RNA 1
RNA 2: B2 RNA 2 with U34A, A43C, G47C, U50C
B5: target 1 insC 3' of 20,insA 3' of 3 (mixed)
RNA 1: B1 RNA 1
RNA 2: GGGAAUGGAUCCACAUCUACGAAUUCGUACCACUAGAGAGGUUAUCCGCUACACCGAGAUCGGAAGAGCACACGU
B6: target 1 C6G,G12U (mixed)
RNA 1: B1 RNA 1
RNA 2: B2 RNA 2 with U34A, G40U, C46G, U50C
B7: target 1 insU 3' of 18,insA 3' of 8 (mixed)
RNA 1: B1 RNA 1
RNA 2: B5 RNA 2 with C33U, U34A, A35U, C46A, G48C, C49G, U50C, A51U
B8: target 1 U10A,A18C (mixed)
RNA 1: B1 RNA 1
RNA 2: B2 RNA 2 with U34C, U42A, U50C
B9: target 1 A1C,C7U (mixed)
RNA 1: B1 RNA 1
RNA 2: B2 RNA 2 with U34A, C45U, U50C, A51C
B10: target 1 G12U,A16G (mixed)
RNA 1: B1 RNA 1
RNA 2: B2 RNA 2 with U34A, A36G, G40U, U50C
B11: target 1 insA 3' of 4,insU 3' of 2 (mixed)
RNA 1: B1 RNA 1
RNA 2: B1 RNA 2 with G48C, U49A, C50U, U51C, C52U
B12: target 1 G15A,C22U (mixed)
RNA 1: B1 RNA 1
RNA 2: B2 RNA 2 with C30U, U34A, G37A, U50C
B13: target 1 insA 3' of 15,insU 3' of 9 (mixed)
RNA 1: B1 RNA 1
RNA 2: B3 RNA 2 with G33U, U34A, U35G, G39A, A40G, G42U, U44A, A45U
B14: target 1 insG 3' of 3,insU 3' of 1 (mixed)
RNA 1: B1 RNA 1
RNA 2: B1 RNA 2 with G48C, C50G, U51C, C52A, A53U
B15: target 1 insG 3' of 2,insG 3' of 1 (mixed)
RNA 1: B1 RNA 1
RNA 2: B1 RNA 2 with G48C, U51G, C52A, A53G
B16: target 1 G5C,U10A (mixed)
RNA 1: B1 RNA 1
RNA 2: B2 RNA 2 with U34A, U42A, G47C, U50C
B17: target 1 complement block 2-13 (mixed)
RNA 1: B1 RNA 1
RNA 2: GGGAAUGGAUCCACAUCUACGAAUUCGUACCAUAGAGACCAAUAGGCGAGACCGAGAUCGGAAGAGCACACGU
B18: target 1 insA 3' of 13,insG 3' of 6 (mixed)
RNA 1: B1 RNA 1
RNA 2: B1 RNA 2 with G40A, U41G, A43U, U44A, C45U, G47C, U49G
B19: target 1 insU 3' of 12,insC 3' of 11 (mixed)
RNA 1: B1 RNA 1
RNA 2: B1 RNA 2 with A43C, C45A, C46U, G47C, G48C, U49G
B20: target 1 insC 3' of 12,insU 3' of 6 (mixed)
RNA 1: B1 RNA 1
RNA 2: B1 RNA 2 with U41C, A43U, U44A, C45U, G47C, G48U, U49G
B21: target 1 insA 3' of 7,insU 3' of 6 (mixed)
RNA 1: B1 RNA 1
RNA 2: B1 RNA 2 with C46A, G47C, G48U, U49G
B22: target 1 C4A,C6G (mixed)
RNA 1: B1 RNA 1
RNA 2: B2 RNA 2 with U34A, C46G, C48A, U50C
B23: target 1 insA 3' of 12,insC 3' of 5 (mixed)
RNA 1: B1 RNA 1
RNA 2: B1 RNA 2 with U41A, A43U, U44A, C45U, G47C, U49C
B24: target 1 insG 3' of 4 (mixed)
RNA 1: B1 RNA 1
RNA 2: GGGAAUGGAUCCACAUCUACGAAUUCGUACCAUAGAGAGGUUAUCCGCGUCACCGAGAUCGGAAGAGCACACGU
B25: target 1 insU 3' of 13,insU 3' of 12 (mixed)
RNA 1: B1 RNA 1
RNA 2: B3 RNA 2 with G33U, U34A, U35G, A40U, G42U
B26: target 1 insA 3' of 10,insG 3' of 10 (mixed)
RNA 1: B1 RNA 1
RNA 2: B1 RNA 2 with U44G, C45A, C46U, G47C, G48C, U49G
B27: target 1 A1G,C7U (mixed)
RNA 1: B1 RNA 1
RNA 2: B2 RNA 2 with U34A, C45U, U50C, A51G
B28: target 1 insG 3' of 8,insG 3' of 6 (mixed)
RNA 1: B1 RNA 1
RNA 2: B1 RNA 2 with C45G, G47C, U49G
B29: target 1 del7,del8 (mixed)
RNA 1: B1 RNA 1
RNA 2: GGGAAUGGAUCCACAUCUACGAAUUCGUACCAUAGAGAGGUUACGCUCACCGAGAUCGGAAGAGCACACGU
B30: target 1 G5C,G17C (mixed)
RNA 1: B1 RNA 1
RNA 2: B2 RNA 2 with U34A, G35C, G47C, U50C
B31: target 1 C7U,A14G (mixed)
RNA 1: B1 RNA 1
RNA 2: B2 RNA 2 with U34A, A38G, C45U, U50C
B32: target 1 C2A,C22U (mixed)
RNA 1: B1 RNA 1
RNA 2: B2 RNA 2 with C30U, U34A, U50A
B33: target 1 insU 3' of 20,insG 3' of 19 (mixed)
RNA 1: B1 RNA 1
RNA 2: B3 RNA 2 with G33U, U35G

Molecular target: T1, EsCas13d, nuclease-dead
Assay: crRNA (strand 1, pre-loaded); Mg2+; 40 mM Tris-HCl pH 7.5, 150 mM NaCl, 6 mM MgCl2, 1 mM DTT, 0.1% Tween-20, 0.2 mg/ml BSA; 25 C; 10 min per concentration, then washed
Conditions: tags: His6-TwinStrep-SUMO cleaved; N-terminal SNAP kept (SNAP-Surface 488); label: 3' end held by stalled T7 RNA polymerase

| Binder | Kd [nM] |
| --- | --- |
| B1 | 5.6 ± 0.6 |
| B2 | 21.2 ± 1.5 |
| B3 | 28.4 ± 1.6 |
| B4 | 16.7 ± 0.8 |
| B5 | 8.76 ± 0.32 |
| B6 | 13.7 ± 1.2 |
| B7 | 55 ± 4 |
| B8 | 100 ± 17 |
| B9 | 9.6 ± 0.9 |
| B10 | 43 ± 5 |
| B11 | 9.4 ± 0.9 |
| B12 | 17.7 ± 2.4 |
| B13 | 24.4 ± 3.1 |
| B14 | 9.04 ± 0.35 |
| B15 | 7 ± 0.6 |
| B16 | 11.8 ± 0.6 |
| B17 | 74 ± 11 |

| Binder | Kd [nM] |
| --- | --- |
| B18 | 3.93 ± 0.27 |
| B19 | 25 ± 4 |
| B20 | 16.4 ± 0.7 |
| B21 | 7.6 ± 0.5 |
| B22 | 5.4 ± 0.4 |
| B23 | 23.6 ± 2.1 |
| B24 | 6.65 ± 0.25 |
| B25 | 11.8 ± 1.3 |
| B26 | 12.3 ± 0.6 |
| B27 | 9.2 ± 0.7 |
| B28 | 7.05 ± 0.26 |
| B29 | 10.6 ± 0.7 |
| B30 | 48 ± 6 |
| B31 | 16.5 ± 1.6 |
| B32 | ~30 |
| B33 | 30.4 ± 1.8 |
